In assay [1] the target is PD1 (immobilized target, Example 7). Nature of the assay: SPR, PD1 immobilized on CM5 chip, Langmuir 1:1. On the technique in general: Surface plasmon resonance follows binding to a sensor surface in real time, without labels.
For the next assay, the target named is CD3 (Example 7). Nature of the assay: SPR, biotinylated CD3 on SA chip, Langmuir 1:1.
Chain of CD3 (Example 7) (P22646 22-108): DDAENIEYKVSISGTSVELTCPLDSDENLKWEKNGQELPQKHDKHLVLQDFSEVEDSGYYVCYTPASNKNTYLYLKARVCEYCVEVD

B1: 145-2C11 Fab CL 128187 (bispecific antibody)
heavy: EVQLVESGGGLVQPGKSLKLSCEASGFTFSGYGMHWVRQAPGRGLESVAYITSSSINIKYADAVKGRFTVSRDNAKNLLFLQMNILKSEDTAMYYCARFDWDKNYWGQGTMVTVSSAKTTAPSVYPLAPACDSTTSTTNTVTLGCLVKGYFPEPVTVIWNSGALTSGVHTFPSVLHSGLYSLSSSVTVPSSTWPSQTVTCNVAHPASSTTVDLKIE
light: not shown
modifications: not checked
As to B1, in assay [1], the Kd (commonly the concentration at which binding is half-saturated) came to 36.2 nM; the koff (in general, the rate constant with which the complex falls apart) amounted to 0.000282 s⁻¹; the on-rate (kon) (commonly a measure of how fast the partners come together) turned out to be 7780 M⁻¹ s⁻¹. In the assay with CD3 (Example 7), the dissociation constant (Kd) came out at 3.92 nM, the koff came out at 0.0015 s⁻¹ and the kon was 381000 M⁻¹ s⁻¹.

B2: 145-2C11 Fab NH 128187 (bispecific antibody)
heavy: not shown
light: DIQMTQSPSSLPASLGDRVTINCQASQDISNYLNWYQQKPGKAPKLLIYYTNKLADGVPSRFSGSGSGRDSSFTISSLESEDIGSYYCQQYYNYPWTFGPGTKLEIKRADAKPTVSIFPPSSEQLGTGSATLVCFVNNFYPKDINVKWKVDGSEKRDGVLQSVTDQDSKDSTYSLSSTLSLTKADYERHNLYTCEVTHKTSTAAIVKTLNRNEC
modifications: not checked
In assay [1], B2 gave a Kd of 4.61 nM, a koff of 0.000229 s⁻¹ and a kon of 49600 M⁻¹ s⁻¹. Also, in the assay with CD3 (Example 7), the Kd was 10.8 nM, the off-rate (koff) is 0.00306 s⁻¹ and the on-rate constant (kon) is 284000 M⁻¹ s⁻¹.

B3: 145-2C11 Fab CH 128187 (bispecific antibody)
heavy: not shown
light: DIQMTQSPSSLPASLGDRVTINCQASQDISNYLNWYQQKPGKAPKLLIYYTNKLADGVPSRFSGSGSGRDSSFTISSLESEDIGSYYCQQYYNYPWTFGPGTKLEIKRADAKPTVSIFPPSSEQLGTGSATLVCFVNNFYPKDINVKWKVDGSEKRDGVLQSVTDQDSKDSTYSLSSTLSLTKADYERHNLYTCEVTHKTSTAAIVKTLNRNEC
modifications: not checked
Consider B3, for which, in assay [1], the dissociation constant (Kd) was determined as 686 nM, the koff amounted to 9.45e-05 s⁻¹ and the on-rate (kon) is 138 M⁻¹ s⁻¹. In the assay with CD3 (Example 7), this molecule displayed a dissociation constant (Kd) of 2.14 nM, a koff of 0.00126 s⁻¹ and an on-rate constant (kon) of 587000 M⁻¹ s⁻¹.

For the origin of these results see US20190292266A1.
